Experimental data: patent publication US20250154262A1

Legend:
hFcγRIIIa-V158 (human) [1] = biological target: hFcγRIIIa-V158 (human) (UniProt P08637); assay: SPR, further study
hFcγRIIIa-V158 (human) [2] = biological target: hFcγRIIIa-V158 (human) (UniProt P08637); assay: SPR (Carterra LSA), protein AG capture

Sequence of hFcγRIIIa-V158 (human) (P08637 17-208 F176V limits assumed): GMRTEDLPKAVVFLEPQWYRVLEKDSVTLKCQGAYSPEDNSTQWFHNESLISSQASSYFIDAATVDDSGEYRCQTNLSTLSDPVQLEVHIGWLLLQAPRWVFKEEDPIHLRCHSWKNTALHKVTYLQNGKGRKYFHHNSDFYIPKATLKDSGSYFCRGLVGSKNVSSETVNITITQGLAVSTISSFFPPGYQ

Kd (hFcγRIIIa-V158 (human) [1]) [nM]	Fold-change relative to WT (hFcγRIIIa-V158 (human) [2]) [fold]	Kd (hFcγRIIIa-V158 (human) [2]) [nM]	koff (hFcγRIIIa-V158 (human) [2]) [s⁻¹]	kon (hFcγRIIIa-V158 (human) [2]) [M⁻¹ s⁻¹]	Fold Change vs. WT (hFcγRIIIa-V158 (human) [1]) [fold]	koff (hFcγRIIIa-V158 (human) [1]) [s⁻¹]	kon (hFcγRIIIa-V158 (human) [1]) [M⁻¹ s⁻¹]	Substance
221								H268D, Y373W (antibody)
	3.3	88.3	0.025	283000				H268D_L251F_L314M (antibody)
	4.4	65.6	0.024	366000				H268D_L251F_L314K (antibody)
159					3	0.0516	324000	H268D, L314K (antibody)
	3.9	73.9	0.0243	328000				H268D_L251F (antibody)
	3.4	84.4	0.0225	267000				H268D_L251F_L314V (antibody)
	3.3	89.1	0.034	381000				H268D_L251W_Y373W_S298A (antibody)
		72.8						H268D_L251Q_L314M_Y373W (antibody)
		268						S267D_A330Y_L314K (antibody)
		68.2						H268D_L251F_L314T (antibody)
	3.9	74.9	0.0231	309000				H268D_L251F_L314N (antibody)
	4.4	66.2	0.038	574000				H268D_A330Y_L251W_D376V (antibody)
	4.1	71.7	0.025	349000				H268D_A330Y_Y373W (antibody)
	9.4	31.1	0.119	3.83e+06				H268D_L251W_L314S (antibody)
	3.1	93.9	0.03	319000				H268D_L251Q_L314M (antibody)
	4.4	66.3	0.019	287000				H268D_A330Y_A339T_Y373W (antibody)
	2.4	123	0.049	397000				H268D_L251W_S267D_Y373W (antibody)
		58.4						S298A_A330Y_A339T (antibody)
	7.9	36.7	0.0125	340000				H268D_L251F_L314M_S298A (antibody)
	2	149	0.026	174000				H268D_A330Y_L251W (antibody)
	4.1	70.2	0.0292	416000				H268D_L251Q_Y373W (antibody)
159								H268E, L314T, D376V (antibody)
		133						H268D_L314K_L251Q (antibody)
		208						S267D_L314T_A339T (antibody)
	2	145	0.0406	279000				S267D_A330Y_D376V (antibody)
119					4	0.0525	442000	H268D, S267D, A339T (antibody)

Kd (hFcγRIIIa-V158 (human) [1]) [nM]	Fold-change relative to WT (hFcγRIIIa-V158 (human) [2]) [fold]	Kd (hFcγRIIIa-V158 (human) [2]) [nM]	koff (hFcγRIIIa-V158 (human) [2]) [s⁻¹]	kon (hFcγRIIIa-V158 (human) [2]) [M⁻¹ s⁻¹]	Fold Change vs. WT (hFcγRIIIa-V158 (human) [1]) [fold]	koff (hFcγRIIIa-V158 (human) [1]) [s⁻¹]	kon (hFcγRIIIa-V158 (human) [1]) [M⁻¹ s⁻¹]	Substance
		86.8						H268D_L251W_Y373W (antibody)
85.1								H268D, L314M, S298A (antibody)
	2.3	124	0.036	290000				S267D_L314W_L251H_D376V (antibody)
	4.4	65.8	0.0253	385000				H268D_L251F_L314G (antibody)
	6.4	45.4	0.0126	278000				H268D_A339T_S298A (antibody)
	3.2	91.4	0.036	394000				S267D_A330Y_L251W_D376V (antibody)
	3.1	92.8	0.0231	249000				H268D_L251W_L314V (antibody)
	3.3	88.4	0.0207	235000				S298A_A330Y_L314K (antibody)
	3.2	90.4	0.038	421000				S298A_A330Y_L251W (antibody)
	1.9	151	0.065	431000				H268D_L251W_L314M_Y373W (antibody)
96.5					4.9	0.0452	471000	H268D, L314N (antibody)
	1.2	251	0.0344	137000				S298A_A330Y_Y373W (antibody)
	0.2	1610	0.062	38500				L251I_L314G_A339T_A330F (antibody)
	3.7	79.5	0.023	289000				H268D_L251F_L314M_Y373W (antibody)
	3.3	88.2	0.0228	258000				H268D_L251F_Y373W (antibody)
	2.7	109	0.035	320000				S267D_A330Y_A339T (antibody)
	1.5	190	0.035	184000				L314V_A330F_Y373W_H268A (antibody)
	2.6	111	0.0308	276000				H268E_L251W_L314I_A330F (antibody)
		32.1						H268D_L251I_A330F_S298A (antibody)
	6.3	46	0.0213	463000				H268D_L251W_S298A (antibody)
152					3.1	0.0434	286000	H268D, L314S (antibody)
	6.3	45.9	0.0246	536000				H268D_L251Q_L314G (antibody)
		204						L251F_A339T_L314S_Y373W (antibody)
	4.8	60.7	0.0212	348000				H268D_S267D_L251I_A339T (antibody)
	2.4	123	0.0786	637000				A330Y_D376V_Y373W (antibody)
	1.6	179	0.045	252000				L314W_A339T_A330M_D376T (antibody)

Kd (hFcγRIIIa-V158 (human) [1]) [nM]	Fold-change relative to WT (hFcγRIIIa-V158 (human) [2]) [fold]	Kd (hFcγRIIIa-V158 (human) [2]) [nM]	koff (hFcγRIIIa-V158 (human) [2]) [s⁻¹]	kon (hFcγRIIIa-V158 (human) [2]) [M⁻¹ s⁻¹]	Fold Change vs. WT (hFcγRIIIa-V158 (human) [1]) [fold]	koff (hFcγRIIIa-V158 (human) [1]) [s⁻¹]	kon (hFcγRIIIa-V158 (human) [1]) [M⁻¹ s⁻¹]	Substance
		25.2						H268D_L251Q_Y373W_S298A (antibody)
	1.7	174	0.038	218000				L251F_S267A_L314S (antibody)
		51.7						H268D_L251W_L314T_S298A (antibody)
	2.3	124	0.0371	298000				S267D_A330Y_Y373W (antibody)
	4	72.8	0.0682	936000				H268D_L251W (antibody)
	1.5	188	0.0564	300000				H268D_L251W_L314M (antibody)
	5.1	57.6	0.021	365000				H268E_L314V_L251A_A330M (antibody)
	1.8	163	0.0241	148000				H268D_L251F_L314W (antibody)
	3.8	77.2	0.0285	369000				S298A_A330Y_D376V (antibody)
	4	73	0.027	370000				H268D_L251F_L314S (antibody)
		118						H268E_L251Q_A339T_L314A (antibody)
	3.1	93.3	0.0206	221000				S298A_A330Y_A339T_Y373W (antibody)
	3.3	87.8	0.0476	542000				H268D_L251W_L314K (antibody)
		104						L251F (antibody)
	2.3	127	0.0308	243000				S298A_A330Y_L251W_D376V (antibody)
		67.9						A330Y_S267A_D376V_S298A (antibody)
	2.6	111	0.0391	353000				S267D_A330Y_L251W (antibody)
	7.6	38.4	0.0198	516000				H268D_L314W_Y373W_A330M (antibody)
	3.9	74.6	0.044	590000				H268D_L251W_A330Y_Y373W (antibody)
	8.4	34.5	0.0223	647000				H268D_L251W_L314N (antibody)
		286						L314N_S267A_A330M_D376T (antibody)
	2.7	107	0.047	438000				H268D_L251Q (antibody)
	21.9	13.3	0.0152	1.15e+06				H268D_L251Q_L314E (antibody)
	5.9	49.1	0.0189	385000				H268D_A330Y_L314K (antibody)
	4.2	69.1	0.0269	389000				H268D_L251W_L314M_S298A (antibody)
